Measurements: article PMC11326118, “Oxamic transcarbamylase of Escherichia coli is encoded by the three genes allFGH (formerly fdrA, ylbE, and ylbF)” (Applied and Environmental Microbiology, 2024)

Key:
[1] = substrate: NC(=O)OP(=O)(O)O; test: oxamate consumption by HPLC, reverse reaction; assay type: biochemical, Escherichia coli; conditions: oxamate fixed at 40 mM, 10 mM MgCl2, 100 mM Tris pH 9.0, 30 °C, 100 nM enzyme
Excerpt: (§1) oxamate consumption by HPLC, reverse reaction on AllFGH (AllF-AllG-AllH; FdrA-YlbE-YlbF), oxamic transcarbamylase (OXTCase)

[2] = substrate: NC(=O)C(=O)O; test: oxamate consumption by HPLC, reverse reaction; assay type: biochemical, Escherichia coli; conditions: co-substrate carbamoyl phosphate, 10 mM MgCl2, 100 mM Tris pH 9.0, 30 °C, 100 nM enzyme
Excerpt: as §1

B1: AllFGH (AllF-AllG-AllH; FdrA-YlbE-YlbF), oxamic transcarbamylase (OXTCase) (Escherichia coli K-12) (protein)
chain 1: MIHAFIKKGCFQDSVSLMIISRKLSESENVDDVSVMMGTPANKALLDTTGFWHDDFNNATPNDICVAIRSEAADAGIAQAIMQQLEEALKQLAQGSGSSQALTQVRRWDSACQKLPDANLALISVAGEYAAELANQALDRNLNVMMFSDNVTLEDEIQLKTRAREKGLLVMGPDCGTSMIAGTPLAFANVMPEGNIGVIGASGTGIQELCSQIALAGEGITHAIGLGGRDLSREVGGISALTALEMLSADEKSEVLAFVSKPPAEAVRLKIVNAMKATGKPTVALFLGYTPAVARDENVWFASSLDEAARLACLLSRVTARRNAIAPVSSGFICGLYTGGTLAAEAAGLLAGHLGVEADDTHQHGMMLDADSHQIIDLGDDFYTVGRPHPMIDPTLRNQLIADLGAKPQVRVLLLDVVIGFGATADPAASLVSAWQKACAARLDNQPLYAIATVTGTERDPQCRSQQIATLEDAGIAVVSSLPEATLLAAALIHPLSPAAQQHTPSLLENVAVINIGLRSFALELQSASKPVVHYQWSPVAGGNKKLARLLERLQ
chain 2: MFTSVAQANAAVIEQIRRARPHWLDVQPASSLISELNEGKTLLHAGPPMRWQEMTGPMKGACVGACLFEGWAKDEAQALAILEQGEVNFIPCHHVNAVGPMGGITSASMPMLVVENVTDGNRAYCNLNEGIGKVMRFGAYGEDVLTRHRWMRDVLMPVLSAALGRMERGIDLTAMMAQGITMGDEFHQRNIASSALLMRALAPQIARLDHDKQHIAEVMDFLSVTDQFFLNLAMAYCKAAMDAGAMIRAGSIVTAMTRNGNMFGIRVSGLGERWFTAPVNTPQGLFFTGFSQEQANPDMGDSAITETFGIGGAAMIAAPGVTRFVGAGGMEAARAVSEEMAEIYLERNMQLQIPSWDFQGACLGLDIRRVVETGITPLINTGIAHKEAGIGQIGAGTVRAPLACFEQALEALAESMGIG
chain 3: MTIIHPLLASSSAPNYRQSWRLAGVWRRAINLMTESGELLTLHRQGSGFGPGGWVLRRAQFDALCGGLCGNERPQVVAQGIRLGRFTVKQPQRYCLLRITPPAHPQPLAAAWMQRAEETGLFGPLALAASDPLPAELRQFRHCFQAALNGVKTDWRHWLGKGPGLTPSHDDTLSGMLLAAWYYGALDARSGRPFFACSDNLQLVTTAVSVSYLRYAAQGYFASPLLHFVHALSCPKRTAVAIDSLLALGHTSGADTLLGFWLGQQLLQGKP
notes: full-length subunits co-expressed from pET30b (pMB191) in E. coli BL21(DE3); 6xHis at N-terminus of AllF and C-terminus of AllH, tags kept; 62, 46, 31 kDa; 555, 419, 271 aa
[1]
  Km: 1.3 mM
  kcat: 35.5 s⁻¹
  kcat/Km: 27300 M⁻¹ s⁻¹
[2]
  Km: 36.9 mM
  kcat: 58.5 s⁻¹
  kcat/Km: 1600 M⁻¹ s⁻¹
